For orientation: EC50 means the concentration giving half of the maximal effect. Read a high EC50 as a less potent agent.

In one assay the target is T1, human CD137 on cells (human, UniProt Q07011 24-255).
T1 construct: Human CD137 on CHO-K1 transfectants, Jurkat/CD137 reporter cells or CD3-stimulated primary human CD8 T cells; cells named under assay; also called 4-1BB; TNFRSF9
The experiment in a line: flow cytometry, CD3-stimulated primary human CD8 T cells (summary of the study). How it is done:
FACS staining and analysis of CD8 T cells: Following 48 h of incubation with or without CD3, human and cynomolgus PBMC were harvested, pooled, recounted and diluted in FACS buffer (PBS+0.5% BSA, 0.05% NaN₃) to a concentration of 5×10⁶ cells/mL. 50 μL (0.25×10⁶ cells) of cell solution was added to a 96-well FACS staining plate (Falcon #351190). Following 10 min of Fc-blocking in RT using Beriglobin (hIgG, 200 μg/mL), cells were washed in FACS buffer and then incubated for 1 h in 4° C. with 100 μL of the biotinylated ALG.APV-210 or negative control. The antibodies were added in a serial dilution starting either at 5 μg/mL titrating down in a 12 step 1/3 dilution down to 0.0003 μg/mL (exp 1) or 1 μg/mL titrating down in a 12 step 1/2 dilution down to 0.0005 μg/mL (exp 2). […] Cells were analysed for ALG.APV-210 binding using flow cytometry by gating on viable, single cells expressing CD3 and CD8. MFI values (FMO subtracted) from 2 independent experiments as well as normalized pooled data from 2 experiments and EC₅₀-values were determined and plotted using GraphPad Prism 7, non-linear regression log (agonist) vs. normalized response-variable slope, n=6 donors/group.
A general note: A flow cytometer gives signals particle by particle.

Assay [1] concerns the target T2, human 5T4 on cells (human, UniProt Q13641 32-420).
T2 construct: Human 5T4 on transfected cells (CHO-K1, CT26, B16) or endogenous on human tumour lines; the cell line is named under assay; also called trophoblast glycoprotein; TPBG
T2 sequence: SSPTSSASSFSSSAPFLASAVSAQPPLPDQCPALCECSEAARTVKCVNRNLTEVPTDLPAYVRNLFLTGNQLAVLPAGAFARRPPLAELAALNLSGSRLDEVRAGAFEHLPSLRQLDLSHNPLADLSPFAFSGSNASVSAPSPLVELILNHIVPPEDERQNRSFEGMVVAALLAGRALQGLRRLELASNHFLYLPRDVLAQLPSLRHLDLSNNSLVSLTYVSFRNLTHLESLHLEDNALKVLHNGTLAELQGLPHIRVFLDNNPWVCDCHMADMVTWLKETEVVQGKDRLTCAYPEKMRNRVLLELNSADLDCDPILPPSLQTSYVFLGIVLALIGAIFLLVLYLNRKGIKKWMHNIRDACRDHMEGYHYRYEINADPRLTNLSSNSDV
Nature of the assay: flow cytometry, JAR cells, streptavidin-PE, normalized MFI of 2 pooled experiments. The method, then: (§1) Biotinylation: In order to detect ALG.APV-210 binding to 5T4-expressing cell lines, ALG.APV-210 was first biotinylated. The quality of the biotinylated protein and the impact on binding to its targets was assessed using ELISA.
(§2) FACS staining and analysis of 5T4-expressing cell lines: Prior to the FACS staining, all cell lines were characterized for their 5T4 expression levels using a receptor density kit (Quantum Simply Cellular, anti-human IgG, Bangs Laboratories, Inc). Adherent cell lines were cultured according to their supplier's instructions and were harvested from their cell culture flasks using Trypsin/EDTA, counted in R10 medium in a Burker chamber, and diluted in FACS buffer (PBS+0.5% BSA, 0.05% NaN₃) to a concentration of 4×10⁶ cells/mL. 50 μL (0.20×10⁶) of cell solution was added to a 96-well FACS staining plate (Falcon #351190). Cells were incubated for 20 min in 4° C. with 50 μL of the biotinylated ALG.APV-210 (2× final concentration). […] Cells were analysed for ALG.APV-210 binding using flow cytometry (FACSVerse) by gating on single cells. MFI values (secondary antibody only subtracted) from 1 out of 2 independent experiments, as well as normalized data and EC₅₀-values of pooled data from 2 experiments were determined and plotted using GraphPad Prism 7, non-linear regression log (agonist) vs. normalized response-variable slope.

Assay [2] addresses T2, human 5T4 on cells. The experiment in a line: flow cytometry, JEG cells, streptavidin-PE, normalized MFI of 2 pooled experiments. The method, then: as §2, with “concentration). The antibodies were added in a serial dilution starting at 20 μg/mL titrating down in a 12 step 1/2 dilution down to 0.010 μg/mL.” for “concentration).”
For assay [3], the target named is T2, human 5T4 on cells. Nature of the assay: flow cytometry, HT-29 cells, streptavidin-PE, normalized MFI of 2 pooled experiments. How it is done: as §2, with “concentration). The antibodies were added in a serial dilution starting at 20 μg/mL titrating down in a 12 step 1/2 dilution down to 0.010 μg/mL.” for “concentration).”
The target of assay [4] is T2, human 5T4 on cells. Nature of the assay: flow cytometry, SKOV-3 cells, streptavidin-PE, normalized MFI of 2 pooled experiments. The method, then:
as §1, §2

For assay [5], the target named is T2, human 5T4 on cells. Nature of the assay: flow cytometry, CHO-hu5T4 cells, streptavidin-PE, normalized MFI of 2 pooled experiments. The method, then:
as §1, §2

Assay [6] addresses T2, human 5T4 on cells. Nature of the assay: flow cytometry, CT26-hu5T4^int cells, streptavidin-PE, normalized MFI of 2 pooled experiments. The method, then:
as §1, §2

For assay [7], the target named is T2, human 5T4 on cells. Nature of the assay: flow cytometry, CT26-hu5T4^low cells, streptavidin-PE, normalized MFI of 2 pooled experiments. The method, then:
as §2, with “concentration). The antibodies were added in a serial dilution starting at 20 μg/mL titrating down in a 12 step 1/2 dilution down to 0.010 μg/mL.” for “concentration).”

Assay [8] deals with T2, human 5T4 on cells. Nature of the assay: flow cytometry, CT26-hu5T4^high cells, streptavidin-PE, normalized MFI of 2 pooled experiments. The method, then: as §1, §2

T1 sequence (Q07011 24-255 limits assumed): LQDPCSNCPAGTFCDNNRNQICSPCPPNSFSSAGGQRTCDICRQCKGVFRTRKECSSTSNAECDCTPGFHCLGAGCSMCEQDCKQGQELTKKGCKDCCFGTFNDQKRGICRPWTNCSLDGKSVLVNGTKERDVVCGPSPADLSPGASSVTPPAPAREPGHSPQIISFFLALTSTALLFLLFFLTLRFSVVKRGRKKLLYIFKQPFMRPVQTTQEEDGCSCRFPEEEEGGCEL

B1: biotinylated ALG.APV-210 (bispecific antibody)
chain: EVQLLESGGGLVQPGGSLRLSCAASGFTFSHGSMYWVRQAPGKGLEWVSSISSGSGSTYYADSVKGRFTISHDNSKNTLYLQMNSLRAEDTAVYYCARSSYYGSYYSIDYWGQGTLVTVSSGGGGSGGGGSGGGGSGGGGSDIQMTQSPSSLSASVGDRVTITCRASQSISSYLNWYQQKPGKAPKLLIYAASSLQSGVPSRFSGSGSGTDFTLTISSLQPEDFATYYCQQYYDNLPTFGQGTKLEIKEPKSSDKTHTCPPCPAPEAAGAPSVFLFPPKPKDTLMISRTPEVTCVVVDVSHEDPEVKFNWYVDGVEVHNAKTKPREEQYNSTYRVVSVLTVLHQDWLNGKEYKCAVSNKALPAPIEKTISKAKGQPREPQVYTLPPSRDELTKNQVSLTCLVKGFYPSDIAVEWESNGQPENNYKTTPPVLDSDGSFFLYSKLTVDKSRWQQGNVFSCSVMHEALHNHYTQKSLSLSPGSGGGGSGGGGSGGGGSPSEVQLLESGGGLVQPGGSLRLSCAASGFTFSSYAMSWVRQAPGKCLEWVSAISGSGGSTYYADSVKGRFTISRDNSKNTLYLQMNSLRAEDTAVYYCARYYGGYYSAWMDYWGQGTLVTVSSGGGGSGGGGSGGGGSGGGGSDIQMTQSPSSLSASVGDRVTITCRASQSISSFLNWYQQKPGKAPKLLIYAASSLQSGVPSRFSGSGSGTDFTLTISSLQPEDSATYYCQQTYGYLHTFGCGTKLEIKR
modifications: biotinylated (sites not given)
Consider B1, for which the EC50 stood at 0.2 nM with human CD137 on cells; 9 nM with human 5T4 on cells [1]; 8 nM with human 5T4 on cells [2]; 12 nM with human 5T4 on cells [3]; 15 nM in the assay with human 5T4 on cells [4]; 23 nM with human 5T4 on cells [5]. Moreover, the concentration for a half-maximal effect (EC50) was 12 nM in the assay with human 5T4 on cells [6], 11 nM with human 5T4 on cells [7] and 20 nM with human 5T4 on cells [8].
